A short description of series [1]: Rat renal blood flow studies. The following applies: 1 mg/kg intravenously. The series is classed as in vivo, Sprague Dawley rats. As to the method:
Male Sprague Dawley rats (˜250-300 g) were anesthetized with sodium pentobarbital (50 mg/kg), the trachea was cannulated with PE-205 tubing to maintain airway patency, and temperature was maintained at 37° C. with a heated surgical plate. A 1.4 F pressure catheter (Millar Inc., Houston, TX) was advanced into the right carotid artery to measure aortic blood pressure. The right jugular vein was cannulated with PE-50 tubing for administration of test articles. The left kidney was exposed by a retroperitoneal incision, and a Doppler flow probe (Model 0.5 VB, Transonic System Inc., Ithaca, NY) was attached to the left renal artery to monitor blood flow. Sodium pentobarbital (15 mg/kg, intraperitoneal) was supplemented after completion of these surgical procedures. Following a 10-15 min equilibration, the relaxin was administered at 1 mg/kg intravenously in a dosing volume of 0.15 to 1.82 mL/kg over 30 seconds via an infusion pump (Harvard Apparatus, Holliston, MA). Blood pressure, heart rate and renal blood flow were continuously recorded for 45 min after relaxin administration using a Millar MPVS Ultra Signal Conditioning unit connected to a desktop computer running LabChart 7-Pro data acquisition software (ADInstruments, Dunedin, New Zealand) (Table 5). Table 5. Rat renal blood flow changes (abbreviations as in Table 3).

Series [2] is described as follows: In vivo pharmacokinetic (PK) studies in rats. Set-up: species or system Sprague-Dawley rats. The following applies: rat; for AUC(0-inf): read-out: Rat PK AUC Total; for level at time molar at 24 h: read-out: Rat PK C24. In short, it runs like this: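 Male Sprague-Dawley rats (n=3) given a single 1 mg/kg IV or SC dose of relaxin constructs in 20 mM histidine, 750 mM NaCl, pH 6.0; jugular serum sampled to 72 h. Serum relaxin by ELISA; Cmax, AUCinf, C24 and half-life from non-compartmental analysis of individual profiles.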

In series [3] the target is T1, human RXFP1 receptor (Homo sapiens, UniProt Q9HBX9).
T1 construct: expressed in transfected cells
T1 sequence (Q9HBX9 1-757): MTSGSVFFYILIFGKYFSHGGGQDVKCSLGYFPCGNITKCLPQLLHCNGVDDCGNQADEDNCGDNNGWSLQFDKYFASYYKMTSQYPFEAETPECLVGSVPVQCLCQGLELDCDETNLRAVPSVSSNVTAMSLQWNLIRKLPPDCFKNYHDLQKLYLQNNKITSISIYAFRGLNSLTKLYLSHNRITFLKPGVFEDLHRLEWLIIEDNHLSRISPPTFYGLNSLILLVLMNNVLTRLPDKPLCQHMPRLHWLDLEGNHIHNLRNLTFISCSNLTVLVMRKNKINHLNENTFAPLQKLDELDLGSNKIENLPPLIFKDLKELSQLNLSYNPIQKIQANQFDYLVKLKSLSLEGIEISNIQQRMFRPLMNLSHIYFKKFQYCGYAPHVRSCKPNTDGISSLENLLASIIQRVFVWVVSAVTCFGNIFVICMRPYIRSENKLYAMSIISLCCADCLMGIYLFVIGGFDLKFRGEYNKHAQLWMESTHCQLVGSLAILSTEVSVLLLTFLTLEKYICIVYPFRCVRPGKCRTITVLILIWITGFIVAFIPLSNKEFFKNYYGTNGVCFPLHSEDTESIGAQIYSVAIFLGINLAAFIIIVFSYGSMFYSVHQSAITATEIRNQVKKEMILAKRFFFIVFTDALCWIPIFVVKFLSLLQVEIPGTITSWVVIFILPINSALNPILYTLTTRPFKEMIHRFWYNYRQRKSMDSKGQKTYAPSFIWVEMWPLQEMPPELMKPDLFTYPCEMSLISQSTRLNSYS
Nature of the series: Intracellular cAMP accumulation assay. The series is classed as cell-based.
Description: The intracellular cAMP accumulation assay described herein was used to assess relaxin bioactivity and potency.
CHO-K1 cells (ATCC; Cat. #CRL-9618) stably expressing the human RXFP1 receptor (locus number LOC59350) (10,000/well) were plated into 96-well plates and cultured overnight at 37° C. and 5% CO2. On the following day, the medium was removed from the wells and the cells were stimulated with the addition of ligand (relaxin polypeptide) in 50 uL buffer (1×HBSS, 5 mM HEPES (7.2), 0.5 mM IBMX, 0.1% BSA); incubation was for 10 min at 37° C. Unstimulated cells were utilized as reference controls. Reactions were terminated and cellular cAMP levels were measured using the Homogeneous Time Resolved Fluorescence (HTRF) Dynamic 2 cAMP kit (CisBio, #62AM4PEC) according to the manufacturer's protocol. Plates were analyzed using an EnVision 2104 Multilablel Reader (PerkinElmer). Signal was expressed in terms of the ratio of fluorescence intensity @ 665 nm/fluorescence intensity @620 nm×10,000. The concentration of cAMP in the sample was determined by comparison with standard curves generated from known concentrations of cAMP. The potency of each relaxin was determined using a ten-point concentration response curves which was performed in duplicate. The data were analyzed using Microsoft Excel, Version 2013 Xlfit software. Effective concentration 50 (EC50) values, the point at which the response was one-half maximal, were calculated using a four-parameter logistic equation that allowed for a variable-slope (Table 3).

Where [4] appears, read: male, Sprague-Dawley, serum, rats, SC dose 0.8 mg/kg.
[5] abbreviates: male Sprague-Dawley rats, single SC dose 1.0 mg/kg, serum ELISA.

Entries after “also recorded” stand apart in the source; their conditions may differ. Read-outs that look alike come from different tables or passages of the source. Marks after values point to notes of the source that are not given here.

Turning to `CCCCCCCCCCCCCC(=O)NCCO/N=C(\C)c1ccc(C[C@H](NC(=O)CNC(=O)[C@@H]2CSSC[C@@H](C(=O)O)NC(=O)[C@H](Cc3ccccc3)NC(=O)[C@H](CCCNC(=N)N)NC(=O)[C@H](C)NC(=O)[C@H](CC(C)C)NC(=O)[C@H](CO)NC(=O)[C@H](CCCNC(=N)N)NC(=O)[C@H](CCCCN)NC(=O)[C@H]([C@@H](C)O)NC(=O)[C@@H]3CSSC[C@H](NC(=O)[C@H](CCCCN)NC(=O)[C@H](CC(N)=O)NC(=O)[C@H](C)NC(=O)[C@H](CC(C)C)NC(=O)[C@H](C)NC(=O)[C@H](CO)NC(=O)[C@H](Cc4ccc(O)cc4)NC(=O)[C@H](CC(C)C)NC(=O)[C@@H](N)CC(N)=O)C(=O)N[C@@H](CSSC[C@H](NC(=O)[C@H](CC(C)C)NC(=O)[C@H](CCCCN)NC(=O)[C@@H](NC(=O)[C@@H](NC(=O)[C@H](CCC(=O)O)NC(=O)[C@H](CCC(=O)O)NC(=O)[C@H](CCSC)NC(=O)[C@H](Cc4c[nH]c5ccccc45)NC(=O)[C@H](CO)NC(=O)[C@H](C)N)C(C)C)[C@@H](C)CC)C(=O)NCC(=O)N[C@@H](CCCNC(=N)N)C(=O)N[C@@H](CCC(=O)O)C(=O)N[C@@H](CC(C)C)C(=O)N[C@@H](C(C)C)C(=O)N[C@@H](CCCNC(=N)N)C(=O)N[C@@H](C)C(=O)N[C@@H](CCC(N)=O)C(=O)N[C@@H]([C@@H](C)CC)C(=O)N[C@@H](C)C(=O)N[C@@H]([C@@H](C)CC)C(=O)N2)C(=O)N[C@@H](Cc2c[nH]cn2)C(=O)N[C@@H](C(C)C)C(=O)NCC(=O)N3)C(=O)N[C@@H](CO)C(=O)N[C@H](C(=O)N[C@@H](Cc2c[nH]c3ccccc23)C(=O)N[C@@H](CO)C(=O)O)[C@@H](C)O)cc1` [BM25/AN1-C13-CH3], the “% change in RBF over baseline” value in series [1] (anesthetized male Sprague Dawley rats, renal blood flow recorded for 45 min) was −100^a %. Further, the “effect on renal blood flow (in words)” value in series [1] (rats, 1 mg/kg) is given as “impaired renal blood flow; also recorded: decreased renal blood flow”. Further, the “death of animals after administration” value in series [1] (rats, necropsy pale kidneys, 1 mg/kg) was “fatal”.
Take `CC[C@H](C)[C@@H]1NC(=O)[C@H](C)NC(=O)[C@H]([C@@H](C)CC)NC(=O)[C@H](CCC(N)=O)NC(=O)[C@H](C)NC(=O)[C@H](CCCNC(=N)N)NC(=O)[C@H](C(C)C)NC(=O)[C@H](CC(C)C)NC(=O)[C@H](CCC(=O)O)NC(=O)[C@H](CCCNC(=N)N)NC(=O)CNC(=O)[C@@H](NC(=O)[C@H](CC(C)C)NC(=O)[C@H](CCCCN)NC(=O)[C@@H](NC(=O)[C@@H](NC(=O)[C@H](CCC(=O)O)NC(=O)[C@H](CCC(=O)O)NC(=O)[C@H](CCSC)NC(=O)[C@H](Cc2c[nH]c3ccccc23)NC(=O)[C@H](CO)NC(=O)[C@H](C)N)C(C)C)[C@@H](C)CC)CSSC[C@@H]2NC(=O)[C@@H](NC(=O)[C@H](CCCCN)NC(=O)[C@H](CC(N)=O)NC(=O)[C@H](C)NC(=O)[C@H](CC(C)C)NC(=O)[C@H](C)NC(=O)[C@H](CO)NC(=O)[C@H](Cc3ccc(O)cc3)NC(=O)[C@H](CC(C)C)NC(=O)[C@@H](N)Cc3ccc(C(C)=NOCCNC(=O)CNC(=O)CNC(=O)CNC(=O)CNC(=O)[C@H](CO)NC(=O)CC[C@H](NC(=O)CCCCCCCCCCCCC(=O)O)C(=O)O)cc3)CSSC[C@H](NC(=O)CNC(=O)[C@H](C(C)C)NC(=O)[C@H](Cc3c[nH]cn3)NC2=O)C(=O)N[C@@H]([C@@H](C)O)C(=O)N[C@@H](CCCCN)C(=O)N[C@@H](CCCNC(=N)N)C(=O)N[C@@H](CO)C(=O)N[C@@H](CC(C)C)C(=O)N[C@@H](C)C(=O)N[C@@H](CCCNC(=N)N)C(=O)N[C@@H](Cc2ccccc2)C(=O)N[C@H](C(=O)O)CSSC[C@@H](C(=O)NCC(=O)N[C@@H](CCSC)C(=O)N[C@@H](CO)C(=O)N[C@H](C(=O)N[C@@H](Cc2c[nH]c3ccccc23)C(=O)N[C@@H](CO)C(=O)O)[C@@H](C)O)NC1=O` [AQ1-GGGGS-Glu^γ-C13-COOH]: in series [2] (setting [4]), the AUC(0-inf) was found to be 1.1 µM·h and the level at time molar at 24 h turned out to be 1.52 nM. The EC50 in series [3] (CHO-K1 cells stably expressing human RXFP1, 10 min at 37° C., HTRF cAMP, average, read-out: hRXFP1/CHO-K1 cAMP EC50 (nM, avg)) was 0.14 nM.
For the compound `CC[C@H](C)[C@@H]1NC(=O)[C@H](C)NC(=O)[C@H]([C@@H](C)CC)NC(=O)[C@H](CCC(N)=O)NC(=O)[C@H](C)NC(=O)[C@H](CCCNC(=N)N)NC(=O)[C@H](C(C)C)NC(=O)[C@H](CC(C)C)NC(=O)[C@H](CCC(=O)O)NC(=O)[C@H](CCCNC(=N)N)NC(=O)CNC(=O)[C@@H](NC(=O)[C@H](CC(C)C)NC(=O)[C@H](CCCCN)NC(=O)[C@@H](NC(=O)[C@@H](NC(=O)[C@H](CCC(=O)O)NC(=O)[C@H](CCC(=O)O)NC(=O)[C@H](CCSC)NC(=O)[C@H](Cc2c[nH]c3ccccc23)NC(=O)[C@H](CO)NC(=O)[C@H](C)N)C(C)C)[C@@H](C)CC)CSSC[C@@H]2NC(=O)[C@@H](NC(=O)[C@H](CCCCN)NC(=O)[C@H](CC(N)=O)NC(=O)[C@H](C)NC(=O)[C@H](CC(C)C)NC(=O)[C@H](C)NC(=O)[C@H](CO)NC(=O)[C@H](Cc3ccc(O)cc3)NC(=O)[C@H](CC(C)C)NC(=O)[C@@H](N)Cc3ccc(C(C)=NOCCNC(=O)[C@H](CCCCN)NC(=O)[C@H](CCCCN)NC(=O)[C@H](CO)NC(=O)CNC(=O)CNC(=O)[C@H](CO)NC(=O)CNC(=O)CNC(=O)[C@H](CCC(=O)O)NC(=O)[C@H](CCC(=O)O)NC(=O)CC[C@H](NC(=O)CCCCCCCCCCCCC(=O)O)C(=O)O)cc3)CSSC[C@H](NC(=O)CNC(=O)[C@H](C(C)C)NC(=O)[C@H](Cc3c[nH]cn3)NC2=O)C(=O)N[C@@H]([C@@H](C)O)C(=O)N[C@@H](CCCCN)C(=O)N[C@@H](CCCNC(=N)N)C(=O)N[C@@H](CO)C(=O)N[C@@H](CC(C)C)C(=O)N[C@@H](C)C(=O)N[C@@H](CCCNC(=N)N)C(=O)N[C@@H](Cc2ccccc2)C(=O)N[C@H](C(=O)O)CSSC[C@@H](C(=O)NCC(=O)N[C@@H](CCSC)C(=O)N[C@@H](CO)C(=O)N[C@H](C(=O)N[C@@H](Cc2c[nH]c3ccccc23)C(=O)N[C@@H](CO)C(=O)O)[C@@H](C)O)NC1=O` [AQ1-KKSGGSGGEE-Glu^γ-C13-COOH], in series [2] (setting [5]), the AUC(0-inf) was found to be 0.676 µM·h and the level at time molar at 24 h turned out to be 0.09 nM. In addition, in series [3], the EC50 amounted to 0.16 nM.

The record behind these values is patent US12097241B2, “Methods of treating kidney failure, and/or improving or stablizing renal function using modified relaxin polypeptides” (BRISTOL-MYERS SQUIBB COMPANY, priority 2017, dated 2024).
